Sequences and labels used below:
B4: GST-CTD (residues 372–636) (domain or fragment, UniProt P11940 372-636, looked up)
chain: EERQAHLTNQYMQRMASVRAVPNPVINPYQPAPPSGYFMAAIPQTQNRAAYYPPSQIAQLRPSPRWTAQGARPHPFQNMPGAIRPAAPRPPFSTMRPASSQVPRVMSTQRVANTSTQTMGPRPAAAAAAATPAVRTVPQYKYAAGVRNPQQHLNAQPQVTMQQPAVHVQGQEPLTASMLASAPPQEQKQMLGERLFPLIQAMHPTLAGKITGMLLEIDNSELLHMLESPESLRSKVDEAVAVLQAHQAKEAAQKAVNSATGVPTV
B5: Flag-C (372–636) (domain or fragment, UniProt P11940 372-636, looked up)
chain: EERQAHLTNQYMQRMASVRAVPNPVINPYQPAPPSGYFMAAIPQTQNRAAYYPPSQIAQLRPSPRWTAQGARPHPFQNMPGAIRPAAPRPPFSTMRPASSQVPRVMSTQRVANTSTQTMGPRPAAAAAAATPAVRTVPQYKYAAGVRNPQQHLNAQPQVTMQQPAVHVQGQEPLTASMLASAPPQEQKQMLGERLFPLIQAMHPTLAGKITGMLLEIDNSELLHMLESPESLRSKVDEAVAVLQAHQAKEAAQKAVNSATGVPTV
B6: Flag-1–2–3–4 (2–371) (domain or fragment, UniProt P11940 2-371, looked up)
chain: NPSAPSYPMASLYVGDLHPDVTEAMLYEKFSPAGPILSIRVCRDMITRRSLGYAYVNFQQPADAERALDTMNFDVIKGKPVRIMWSQRDPSLRKSGVGNIFIKNLDKSIDNKALYDTFSAFGNILSCKVVCDENGSKGYGFVHFETQEAAERAIEKMNGMLLNDRKVFVGRFKSRKEREAELGARAKEFTNVYIKNFGEDMDDERLKDLFGKFGPALSVKVMTDESGKSKGFGFVSFERHEDAQKAVDEMNGKELNGKQIYVGRAQKKVERQTELKRKFEQMKQDRITRYQGVNLYVKNLDDGIDDERLRKEFSPFGTITSAKVMMEGGRSKGFGFVCFSSPEEATKAVTEMNGRIVATKPLYVALAQRK
B8: GST-RRM2-3 (residues 97–299) (domain or fragment, UniProt P11940 97-299, looked up)
chain: GVGNIFIKNLDKSIDNKALYDTFSAFGNILSCKVVCDENGSKGYGFVHFETQEAAERAIEKMNGMLLNDRKVFVGRFKSRKEREAELGARAKEFTNVYIKNFGEDMDDERLKDLFGKFGPALSVKVMTDESGKSKGFGFVSFERHEDAQKAVDEMNGKELNGKQIYVGRAQKKVERQTELKRKFEQMKQDRITRYQGVNLYVK
B9: Flag-2–3 (97–299) (domain or fragment, UniProt P11940 97-299, looked up)
chain: GVGNIFIKNLDKSIDNKALYDTFSAFGNILSCKVVCDENGSKGYGFVHFETQEAAERAIEKMNGMLLNDRKVFVGRFKSRKEREAELGARAKEFTNVYIKNFGEDMDDERLKDLFGKFGPALSVKVMTDESGKSKGFGFVSFERHEDAQKAVDEMNGKELNGKQIYVGRAQKKVERQTELKRKFEQMKQDRITRYQGVNLYVK

Data set [1] concerns the target B8. Put plainly: co-IP.
A further data set deals with GST-PABP WT (UniProt P11940 1-636). The data set can be described thus: co-IP.
The data set “SEC” deals with the molecule itself. The data set can be described thus: SEC. A general note: Size exclusion chromatography separates by hydrodynamic size, large species first.
The data set “Flag-C (372–636)” has as its target B5. The data set can be described thus: co-IP.
In a further data set the target is His-PABP WT-Flag (UniProt P11940 2-636). The data set can be described thus: co-IP.
Data set [2] has as its target B4. The data set can be described thus: co-IP.
The data set “Flag-1–2–3–4 (2–371)” has as its target B6. The data set can be described thus: co-IP.
In the data set “Flag-2–3 (97–299)” the target is B9. Put plainly: co-IP.
Data set [3] addresses B8. The data set can be described thus: pull-down.

B1: Flag-linker2-RRM3 (176–299) (domain or fragment, UniProt P11940 176-299, looked up)
chain: RKEREAELGARAKEFTNVYIKNFGEDMDDERLKDLFGKFGPALSVKVMTDESGKSKGFGFVSFERHEDAQKAVDEMNGKELNGKQIYVGRAQKKVERQTELKRKFEQMKQDRITRYQGVNLYVK
In the case of B1, the binding result in [1] is recorded as “binds”.

B2: Flag-1–2–3 (2–299) (domain or fragment, UniProt P11940 2-299, looked up)
chain: NPSAPSYPMASLYVGDLHPDVTEAMLYEKFSPAGPILSIRVCRDMITRRSLGYAYVNFQQPADAERALDTMNFDVIKGKPVRIMWSQRDPSLRKSGVGNIFIKNLDKSIDNKALYDTFSAFGNILSCKVVCDENGSKGYGFVHFETQEAAERAIEKMNGMLLNDRKVFVGRFKSRKEREAELGARAKEFTNVYIKNFGEDMDDERLKDLFGKFGPALSVKVMTDESGKSKGFGFVSFERHEDAQKAVDEMNGKELNGKQIYVGRAQKKVERQTELKRKFEQMKQDRITRYQGVNLYVK
On to B2, for which, in the data set with GST-PABP WT, the binding result was “binds”.

B3: His-PABP 4EA mutant-Flag (natural protein, UniProt P11940 2-636, looked up)
chain: NPSAPSYPMASLYVGDLHPDVTEAMLYEKFSPAGPILSIRVCRDMITRRSLGYAYVNFQQPADAERALDTMNFDVIKGKPVRIMWSQRDPSLRKSGVGNIFIKNLDKSIDNKALYDTFSAFGNILSCKVVCDENGSKGYGFVHFETQEAAERAIEKMNGMLLNDRKVFVGRFKSRKARAAALGARAKAFTNVYIKNFGEDMDDERLKDLFGKFGPALSVKVMTDESGKSKGFGFVSFERHEDAQKAVDEMNGKELNGKQIYVGRAQKKVERQTELKRKFEQMKQDRITRYQGVNLYVKNLDDGIDDERLRKEFSPFGTITSAKVMMEGGRSKGFGFVCFSSPEEATKAVTEMNGRIVATKPLYVALAQRKEERQAHLTNQYMQRMASVRAVPNPVINPYQPAPPSGYFMAAIPQTQNRAAYYPPSQIAQLRPSPRWTAQGARPHPFQNMPGAIRPAAPRPPFSTMRPASSQVPRVMSTQRVANTSTQTMGPRPAAAAAAATPAVRTVPQYKYAAGVRNPQQHLNAQPQVTMQQPAVHVQGQEPLTASMLASAPPQEQKQMLGERLFPLIQAMHPTLAGKITGMLLEIDNSELLHMLESPESLRSKVDEAVAVLQAHQAKEAAQKAVNSATGVPTV
Regarding B3, the “stoichiometry N” value in “SEC” came out at 2.
For B4, the binding result with Flag-C (372–636) and in the data set with His-PABP WT-Flag was “binds” in each case.
In the case of B5, in the data set with GST-PABP WT, the binding result is “binds”.
As for B6, in the data set with GST-PABP WT, the binding result is listed as “binds”.

B7: Flag-Linker (372–543) (domain or fragment, UniProt P11940 372-543, looked up)
chain: EERQAHLTNQYMQRMASVRAVPNPVINPYQPAPPSGYFMAAIPQTQNRAAYYPPSQIAQLRPSPRWTAQGARPHPFQNMPGAIRPAAPRPPFSTMRPASSQVPRVMSTQRVANTSTQTMGPRPAAAAAAATPAVRTVPQYKYAAGVRNPQQHLNAQPQVTMQQPAVHVQGQE
Turning to B7, the binding result in [2] is listed as “binds”.
In the case of B8, the binding result in the data set with Flag-1–2–3–4 (2–371) and in the data set with Flag-2–3 (97–299) was “binds” throughout.
In the case of B9, the binding result (with GST-PABP WT; in [3]) was “binds” in each case.

One may read the stoichiometry N as a count of units in the complex or per binding partner.

The values are drawn from publication PMC8754640 (Nucleic Acids Research, 2021).
